Test: soluble on expression in E. coli; label from the status in PepcDB or PDB records

| Sequence | soluble on expression in E. coli |
| --- | --- |
| MGSDKIHHHHHHMKSNLFMKRKLEIGLSLLIGTSVFGGCNNDLAPIRQSQTFPPNLNAPTVFESFSPDSGGVKTQLIIRGQNFGTDTAYLKVTVNNKRAAIVGVADDVIYAIVPARADTGYVRLFVGKDDNVEEYASQTKFIYQFKRNVTTLMGRQGQSGRDDGPYAECKLQRPWFALADKDGALFFIDEGRGQNKNGALRRAQEGWVETLVQNSSGPFQSPTCLAFNPKQDTLYISNMSYGSDIKTSFNILYVTREGGFMDVKGLCKFEKAETQGLAVHPQTGEIFFCNKSGGYIYRFNGPDYEDYEPLFQINRADKIDTRMVFNPEGTALFVVVCNRHCIYKVPYNALTHTFGEPELFAGGWDESGYVNGSGVTARFDNPRQPAFDQDGNMFVPEYGRHTIRKITPTGEVSLYAGLPGQAGFTDGLPEKARFNKPECVTVYLDNSLYVADRDNHLIRRVTVE | not soluble |
| YLSKYRNETGRSPSFLVNIDSSLKSLAHVDVIYPVGDPIFIHIYERGKERRYKPIEPLLKDDEFEFMDAILDIIMSRASDYPPAENEEEQEKNIEDVYKKTVS | soluble |
| MKALVAVSAVAVVALLGVSSAQADPEADPGAGEANYGGPPSSPRLVDHTEWAQWGSLPSLRVYPSQVGRTASRRLGMAAADAAWAEVLALSPEADTAGMRAQFICHWQYAEIRQPGKPSWNLEPWRPVVDDSEMLASGCNPGSPEESF | soluble |
| MTLLRTTLLSSLLATVVLGASAAPRTEVIPLNYRTADDVMAVAQSVIGSEGKVTAYGNQLIVNAEPAKIRELQSVLQQIDSRPHRLLITVDTSENLQQDSRGYSVDGSASAGNIEIQSGRGEVNGKDRVRIIRRSTDSRSGGSQQVQATEGYPALIQVGQSVPITSTATGPYGQIYSQTEYRNVNRGFYVTATLTGNLVHVTISSSNDRLSQSHPGVIDTQSTDTRVSGKLGEWITLGGVSEQNQADQRGFVRRYSTQGRDDTSLRLKVETLDLEHHHHHH | not soluble |
| MAHHHHHHMRRSLVFPPCHLQEARLLQSQQLFGWYHQTRHFTSLVDRLSTGVARKLSSLTETHMMPLSEKHITEPRRPYPKRPSMQENLAERLAEQRRWRSRVVPQQIILSKDKLYIEFVWSAATLSAAAAREMRQQQNNEEENGDGCTQKRKGISCGSFANDGIIKSEKLMSHRTRFLAEFLRAYSPSTDVIGADALIYGRRGITITDVIPVGNYALRIVFSDGHSGGIYPYEYLFHLGQCKYTKMREYIRRLREKRKSRDPPKRVPSKYVPRGRNAAEGTPKRDKTDDCGHRVAAK | not soluble |
| MLNIDTQFVDTIGKILSDYVSHSEITRMGEVLGYPQNDQNSGFNKHKRVHNLVSDILNRTQNTDNIKLVIEYVCNPLRYINEVSIFEQLRTAINIPLSLKGLIVSDSGQIVTTTTSKTLSEAKKRFETLDSRLKELKVHPHVLKFCTQELLQENYFHAVFEASKGVFHRIRLLTGSAMDSASLIDQCFKPGEPIVIINGNKLQTLDEQSEYKGLKNLLLAIAHLYRNSKAHKLKYYNPDNLNDALTALTLMSLAHNLLDSCSNTRRLD | soluble |
| MGSDKIHHHHHHMRVSVRNLTKIFRVGSIFSLKKLVAIDNVSFEIGSGEIFSLAGESGCGKTTTAKILLGLEEPTNGEVLYDGIKLKDFVENEMHFLKKVQTVQQNPFSTFNPFRKVEDYLFKTVLRFKMANTKDEALRLIEEKLSVVGLNFDEIKGRYPSEFSGGQLQRISIARALLTNPSFLVADEPVSMIDASLRISIVNLFRDLKERFGISILYITHDLSTAYYVADKLAIMFRGSIVEMGRAQDILDTPFHPYTKLLKSSIPVPDPEYEWDENINLSSTEREEFFAKGCKFASRCPEVMSICRESVPPDFDVNGRVVKCWLYK | not soluble |
| MSLDKRYIIAEIKVSIVKTQSAGADYTDHAAGHWINDTIIANPMSVYNDFQHSRSAWGMDVLKGIFIEVTTESGHQGYATAYGGYISSWIIKNHLNRFLIGADARNLSKLYDQMYRASIPYSGQNGVVINTIAGIDLALWDLIGKVRQEPVYMMIGGKVREKLQTYVTGPEAKLAQDWGHVGSKIPLPYGPGDGIVGLKKNQEYIMETRKQVGSDYRLMVDCYMSLDVPYAIDLANAVKEANLYWIEEALPPHDLESHKHIKDACPWQKWTTGEHTNSRYGFRNLIRDRSVDILQPDLTLCGMTETLRIAAMASAYDITVIPHCSGVYAYNFGIASTLTPFNEFINLHPKATEVVPIFGKMFTNEPVPIKGEVTLTDLPGFGAELNKEVELEEIEGHHHHHH | soluble |
| NECVSKGFGCLPQSDCPQEARLSYGGCSTVCCDLSKLTGCKGKGGECNPLDRQCKELQAESASCGKGQKCCVWLH | soluble |
| MAKGDVITLNFETFVDSDTQVKVTRLTPTDVICHRNYFYQKCFTQDGKKLLFAGDFDGNRNYYLLNLETQQAVQLTEGKGDNTFGGFISTDERAFFYVKNELNLMKVDLETLEEQVIYTVDEEWKGYGTWVANSDCTKLVGIEILKRDWQPLTSWEKFAEFYHTNPTCRLIKVDIETGELEVIHQDTAWLGHPIYRPFDDSTVGFCHEGPHDLVDARMWLVNEDGSNVRKIKEHAEGESCTHEFWIPDGSAMAYVSYFKGQTDRVIYKANPETLENEEVMVMPPCSHLMSNFDGSLMVGDGCDAPVDVADADSYNIENDPFLYVLNTKAKSAQKLCKHSTSWDVLDGDRQITHPHPSFTPNDDGVLFTSDFEGVPAIYIADVPESYKHLEHHHHHH | soluble |
| MSLKITSIAVYQVDLPLREGNYAWSEGKSVSVFDSTVVRIETDSGIFGHGEVCPLGPVYLPAYAAGVRTGVAEIAPALIGDDPTELGKLNRKMDYLLKGHPYVKSALDVACWDIFGQAAGLPICTLLGGRYGEDFTLYRAISQRPAAEMAESVAMYRGEGYRRFQLKVGGDPNEDILRIFEAAEMLEPGDKLIADANTGWLKHEALRVVNAVRDVDVYIEQPCPSYEDCRAIRERTTLPFILDEVIDSVDMIVRCAADRAADVVNLKISKLGGLTKARQARDLCASLGLAMTIEDSWGGDIVTAAIAHLAHSTPTDYLFSSTDFNSYVTKSIADGAPQRDNGRLAAAREPGLGVKPKLDVLGKPVATYGKEGHHHHHH | soluble |
| MSFVQIRHISSQINRKTVSIVGSGPSGFYTAYHLLKKSPIPLNVTIWEKLPVPFGLSRYGVAPDHPEVKNCEETFTTCAEEFSSPTNQKHKFSFVGGITIGKEILLKELLDNQDAVILSYGCTGDRKLNIPGELGTKGVFSSREFVNWYNGHPDFAKDKRFTDFDWSKVSKVGIIGNGNVALDITRVLISNQIDEIWENTDISSLALNLLRRAPVKDVKLIARRDFVHSKFTNKELRELWELEKYGIRGRIDPKFFQKEMFDPSKYDRAFNRRVEMCSEYLKPFNERSKKNYKKAPPPSSGYDKFWELDYLKTPLKINRDDFGAINSLSLCNNRLNEDNSLQPLKDVNNIMTYKVDLLITSLGYAGVPMPEFSKLSIGFDKDHIANKQGRVLTSSGEIFPHLYASGWIRKGSQGVIASTMQDAFEVGDRVIQDLVVSGALSLENSIDLSNIKHTTWKDWERINKKELLRGKKEHKTRSKFLTFEELWNGVEGI | soluble |
| MAHHHHHHMQLMRAVTLKGFGDTDMLQISRIPKAVITRGRDILIKVSAAGVNRADAAQRKGHYLPPKGSSEVLGLEVSGIVEEVGVDVKDFKEGDKVMALLPGGGYAEYAVAHEGSVMHIPQGYSFIEAAAIPEAFLTAWQALKYHGDCCKGQKVLIHAGASGVGTAAAQLVEKYFQATALTTSSESKVEVCKNFASINFTRTPDETGMCFSPKVKRLLGEGAINLVLDSVFGGSYISEDAAVLAKDGRIVVLAFMGGATVHLNCLPLLRQRAHVMFSKLRCQSDDYKQNLVDTFEEAVIPYMNERLIVPVANKTYPLEEVAQAHMRLDDSKAWGKIVLTFNSHLSATSTNPPPTLTA | not soluble |
| MGSDKIHHHHHHMERYSGRIFDNHFHLNPKSNFLGAANIFKRSGGTTLNLTNLPSHDAITEYYRRLYDDTIRIGDLVHYELGLEMLITIGPYPFDYFFFERYGSDPVNEMMHGLDLAAKYIEDGKAEAIGEIGFPHVPQPESVMERFWEMLDYAMKIAHDVDAPIVMHTYDLSCEDYAKIEKIAKVNGSVSVVKHHARPSDLTCNTGIARSVPASRSAVRKSLLLSRNFMLETDFINDPIDANRFLPPDSVPKRAQMILQEYDDGSEILNNIFNTIPESIYPKLKEKR | not soluble |
| MLNQSLRPLVNVQVRSVSSKYPRPTPRHFKRRLFEAALKPELPPTVNMCIPPGLIKREHTGKSKEYSDVELALSNLVRDWMVREEFRVMAVCQFLPVPGRTLWFAKNQLRSKNIEFRSYGNKILKKIFDKTPMSSLNTVLVGNNAILLAKDISAIKSILQETDKLNWIEPLVMMADGRIVDMVDARELAKLSSLEDLRAHTVQLLGQQVAQVTISLDTVTRHLPSLLDSHISTNQEAKK | not soluble |
| MNSEQADILDLLSGHTDDTTIERLAFECLLTNMTDDRVVSLMNILGWQGDFNCFAIGGVPSASLASTSLAIRKAVRDLGGEHVVIGTYGTFLLALACQMGAVTPEVTCTAVMPAFSEDEPLYLSPVRSGVAGASHALRETMFSLQAAPALSTPSRPLRADELLPERALLGDDYAREELYRNVYQVLRGENPDDPTYLTVSTFLKYGSSLENTAKELNVHPNTVRYRLKRAAETTGWDATDPRDAYVLTTALAIGRMRDR | soluble |
| MEKNKSSSPDFSVRDFFKRFPDDEACLEHIFNVRFGARHVCRACGVESTFHRMSDRRAFACAACGDHVYPTAGTIFQDTRTPLQVWFYAIYLFVTTRHGVSGKELQRQLGVTYKTAWRIGHKIREQMDKHDLKAMLQGHVEIDEAYIGGKRPGKRGRGAAGKTIVMGFKQRGGRLVTEIVPDVKLKTLRAETLKTVDAGATVSTDELYSYSLLKGEGYTHVAVKHGAKQWTIYDAETDTMHHTNHVESFWRHFKHSIRGTHVSISQRHMRKYLDEFTFRANHRGEVNLMFDRLVAAFLEHHHHHH | soluble |
| SLGEMKRAAIIIDDFGGDVKGVDDFLTGEIPVTVAVMPFLEHSTKQAEIAQAAGLEVIVHMPLEPKKGKISWLGPSGITSNLSVGEVKSRVRKAFDDIPYAVGLNNHMGSKIVENEKIMRAILEVVKEKNAFIIDSGTSPHSLIPQLAEELEVPYATRSIFLDNTHSSRKEVIKNMRKLAKKAKQGSEPIGIGHVGVRGDETYAGIRSMLDEFQAESIQLVPVSQLLPSPIEEDHNKFWQQPFQAKE | soluble |
| MMIVIKTAIPDVLILEPKVFGDERGFFFESYNQQTFEELIGRKVTFVQDNHSKSKKNVLRGLHFQRGENAQGKLVRCAVGEVFDVAVDIRKESPTFGQWVGVNLSAENKRQLWIPEGFAHGFVTLSEYAEFLYKATNYYSPSSEGSILWNDEAIGIEWPFSQLPELSAKDAAAPLLDQALLTE | soluble |
| MGSDKIHHHHHHMDYPDKMTPAQRAAAKAKGEPADRVACNPNIANGMARIAGYKISQFNDDPEALADAIIKTYRRFGADGARIFTDLFLVSEAMGAKVRKPEDNTADLEEPAINDMSEFDKLKVIDPYTQGRIPVHLRAIEIVRDEIASEVGVTASVVGPFTNAFFLIGVEKMTKMLLKDPESVHKLCEISLQSCIALTDAVLEKGVGVTISEPLSSCTVVSPKHFREFSAPYLKRLIDHIKARTGKLVIHICGITDPIWDDLVEMGVDVLSIDNVADMEKCAETVGDKMVIAGNVDPSAIMYAGSREDVRKATIKCAKQGLKAKKGFMIMSGCSLPVEVPIENIDAMMDTAREMGWPVTEEKLDYLLSFDKYKD | not soluble |
| MGHHHHHHSHMLWECKQLGAHSPSTLLTTLMFFNTKYFLLKTVDQHMKLAFSKVLRQTKKNPSNPKDKSTSIRYLKALGIHQTGQKVTDDMYAEQTENPENPLRCPIKLYDFYLFKCPQSVKGRNDTFYLTPEPVVAPNSPIWYSVQPISREQMGQMLTRILVIREIQEAIAVANASTMH | not soluble |
| MGKLKWFSGGKERSNQAENIITDLLDDLKTDLDNESLKKVLENYLEELKQKSASVPLILSRMNLDISKAIRNDGVTLSDYQSKKLKELTSISNIRYGY | soluble |

Source: the DeepSol protein solubility set
